{"source": "paper PMC8536012", "about": "“Selection of Specific Nanobodies against Lupine Allergen Lup an 1 for Immunoassay Development” (Foods, 2021)", "data": [{"molecular_target": "T1, Lup an 1 (Lupinus angustifolius (by the …, UniProt F5B8W3))", "T1 construct": "Lup an 1, lupin β-conglutin, a 7S seed storage globulin of the vicilin-like proteins; found by LC-MS/MS of the ~55 kDa band immunocaptured from crude lupine extract; UniProt F5B8W3.1; size distribution printed as 55 to 61 kDa; Never purified: it stood in a crude lupine protein extract in every experiment; Seen as a band of ~55 kDa; also called lupin β-conglutin; lupine allergen Lup an 1; source: …", "T1 sequence (F5B8W3 31-637)": "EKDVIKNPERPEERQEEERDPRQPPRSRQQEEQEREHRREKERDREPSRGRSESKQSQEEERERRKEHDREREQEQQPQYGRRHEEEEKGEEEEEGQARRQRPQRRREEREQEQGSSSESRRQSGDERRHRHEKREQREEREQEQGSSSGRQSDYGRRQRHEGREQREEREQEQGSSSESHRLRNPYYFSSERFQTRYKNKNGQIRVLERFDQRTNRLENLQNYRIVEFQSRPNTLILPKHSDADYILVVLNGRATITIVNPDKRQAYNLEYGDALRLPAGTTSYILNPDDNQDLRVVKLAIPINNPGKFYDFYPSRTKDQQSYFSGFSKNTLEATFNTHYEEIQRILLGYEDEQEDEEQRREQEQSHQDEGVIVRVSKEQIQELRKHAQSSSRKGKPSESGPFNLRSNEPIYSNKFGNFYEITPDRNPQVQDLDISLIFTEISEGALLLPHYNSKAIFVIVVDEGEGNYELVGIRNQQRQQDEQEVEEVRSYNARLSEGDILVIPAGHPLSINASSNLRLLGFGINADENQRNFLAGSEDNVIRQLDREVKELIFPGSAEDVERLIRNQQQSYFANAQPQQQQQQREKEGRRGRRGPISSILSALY", "experiment": "ELISA; crude lupine extract (50 μg/mL) coated overnight at 4 °C; Nbs serially diluted in PBS, 1 h at room temperature; detected by mouse anti-His IgG and HRP goat anti-mouse IgG; apparent affinity = concentration at half of the maximum signal", "settings": "one partner purified", "units": {"EC50": "nM"}, "values": [{"binder": "Nb B50 (His- and HA-tagged) (VHH, also called Nb50; source: E. coli WK6 (pMECS), periplasmic, purified (IMAC, SEC)) VHH: QVQLQESGGGLVQAEGSLRLSCTVSGRTFSRDAMGWFRRPPGKEREFVAAISWNGASTSYADSVKGRFTVSRDNAKNTSLLQMNSLKPEDTAVYYCATYWSSAIPPLAAATSATYWGQGTQVTVSS", "EC50": 16}, {"binder": "Nb B42 (His- and HA-tagged) (VHH, also called Nb42; source: E. coli WK6 (pMECS), periplasmic, purified (IMAC, SEC)) VHH: QVQLQESGGGLVQAGGSLRLSCAASGRTFSSYAMGWFRQAPGKEREFVAAISWSGGSTYYADSVKGRFTISRDNAKNTVYLQMNSLKPEDTAVYYCAVDQWILEVNAAFQADYWGQGTQVTVSS", "EC50": 24}, {"binder": "Nb B163 (His- and HA-tagged) (VHH, also called Nb163; source: E. coli WK6 (pMECS), periplasmic, purified (IMAC, SEC)) VHH: QVQLQESGGGLAQAGGSLTLSCAASGRTFSIPTMGWFRQAPGKEREFVAAIGRTTAYTGSVKGRFTISRDSAKNTVSLQMNSLNIEDTGVYYCASSQSPWSSPPLTENMYAYWGQGTQVTVSS", "EC50": 45}, {"binder": "Nb B40 (His- and HA-tagged) (VHH, Detecting nanobody of the final sandwich ELISA; also called Nb40; B40HA; source: E. coli WK6 (pMECS), periplasmic, purified (IMAC, SEC)) VHH: QVQLQESGGGLVQAGESLRLSCATTEHANQMYAVGWFRQAPGKEREFVASINWSGTRTEHAESVKGRFTISKINPHDTVYLQMNSLKPEDTAVYACAARYYSGTYTKTDNSNDYDYWGQGTQVTVSS", "EC50": 8}, {"binder": "Nb B66 (His- and HA-tagged) (VHH, also called Nb66; source: E. coli WK6 (pMECS), periplasmic, purified (IMAC, SEC)) VHH: QVQLQESGGGLVQAGGSLRLSCAASGRTFSSYGIGWFRQAPGKEREFVASISWSGGSTYYADSVKGRFTISRDNAKNTVYLQMNSLKPEDTAVYYCAAVIEAIDFVPVEYDYWGQGTQVTVSS", "EC50": 180}, {"binder": "Nb B83 (His- and HA-tagged) (VHH, also called Nb83; B83HA; source: E. coli WK6 (pMECS), periplasmic, purified (IMAC, SEC)) VHH: QVQLQESGGGLVQPGGSLRLSCAASGSIFSRNDMGWYRQAVGEARILVATITSGGVTTYADSVKGRFTISRDNAKNTVYLQMNSLKPEDTAVYYCNTLTNRRNAYWGQGTQVTVSS", "EC50": 1}, {"binder": "Nb B165 (His- and HA-tagged) (VHH, also called Nb165; source: E. coli WK6 (pMECS), periplasmic, purified (IMAC, SEC)) VHH: QVQLQESGGGLVQAGGSLRLSCAASTRTFSSDAMGWFRQAPGKEREFVAAISISTYYADSVKGRFTISRDNAKNTMYLQMNRLKPEDTAVYYCAVKPFYGGIRYPNEYPYWGQGTQVTVSS", "EC50": 31}, {"binder": "Nb B157 (His- and HA-tagged) (VHH, also called Nb157; source: E. coli WK6 (pMECS), periplasmic, purified (IMAC, SEC)) VHH: QVQLQESGGGLVQAGGSLRLSCEASGRTNTKYAWGWFRQAPGKEREFVASINWSGTLINYADSVKGRFTISRDDAKNTVYLEMSSLRPEDTAVYSCAVRYYTGTYYYTTSPDNYKHWAQGTQVTVSS", "EC50": 680}, {"binder": "Nb B187 (His- and HA-tagged) (VHH, From an immune alpaca library raised against crude lupine protein extract; also called Nb187; B187HA; source: E. coli WK6 (pMECS), periplasmic, purified (IMAC, SEC)) VHH: QVQLQESGGGLVQAGGSLRLSCAASGRTFSGARMGWFRQAPGKEREFVAAIRWITGSTYYTDSVKGRFTISRDIAKNTQYLQMNSLKPEDTARYYCAAGEYYGGSYSDTEKYDYWGQGTQVTVSS", "EC50": 14}, {"binder": "Nb B91 (His- and HA-tagged) (VHH, also called Nb91; source: E. coli WK6 (pMECS), periplasmic, purified (IMAC, SEC)) VHH: QVQLQESGGGLVQAGDSLRLSCASSGRTFSSYGVGWFRQAPGKEREFVAAISWNGGSASYADSVKGRFTVSRDNAKNTVYLQMNSLQPEDTADYYCAAKVEALYGTDYFRDYDYWGQGTQVTVSS", "EC50": 9}, {"binder": "Nb B69 (His- and HA-tagged) (VHH, also called Nb69; source: E. coli WK6 (pMECS), periplasmic, purified (IMAC, SEC)) VHH: QVQLQESGGGLVQPGGSLRLSCVSSERTFSPYTMAWFRQAPGKERDFVADIRWGDGTTRYADSVKGRFTISRDNAKNTVFLQTNSLTPEDTAVYYCAHKTWYPRSFQAASYDFWGQGTQVTVSS", "EC50": 325}, {"binder": "Nb B167 (His- and HA-tagged) (VHH, also called Nb167; source: E. coli WK6 (pMECS), periplasmic, purified (IMAC, SEC)) VHH: QVQLQESGGGLVQAGGSLRLSCAASRRTSRNYDMTWFRQFPGTEREFVAFISWGGSRIYYADSVKGRFTISRDNAKDTVYLQMNSLKPEDTAVYYCAADPRLVRGRYESDYWGQGTQVTVSS", "EC50": 13}]}]}
